The record followed here is PMC5018734.

Changes are numbered by the printed parent chain. In names and notes the source's numbering stands.

This experiment addresses T1, human P2X1 receptor, wild type subunit (human) (UniProt P51575).
T1 sequence: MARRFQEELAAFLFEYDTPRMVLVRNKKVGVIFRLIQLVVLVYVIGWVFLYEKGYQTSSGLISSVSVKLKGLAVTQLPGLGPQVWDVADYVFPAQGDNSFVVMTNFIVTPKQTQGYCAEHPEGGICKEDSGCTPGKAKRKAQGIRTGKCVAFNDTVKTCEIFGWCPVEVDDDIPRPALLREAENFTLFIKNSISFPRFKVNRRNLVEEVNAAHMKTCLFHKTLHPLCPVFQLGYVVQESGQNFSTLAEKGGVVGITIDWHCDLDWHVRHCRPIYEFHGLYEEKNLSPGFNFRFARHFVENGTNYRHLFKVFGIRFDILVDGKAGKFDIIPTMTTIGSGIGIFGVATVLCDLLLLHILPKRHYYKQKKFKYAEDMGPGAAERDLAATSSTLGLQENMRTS

B1: human P2X1 receptor K190C-K68A double mutant subunit (receptor)
chain: T1 sequence with K68A, K190C
modifications: labelled with the cysteine reactive fluorophore MTS-TAMRA (K190C)
In the case of B1, the ATP (100 uM) evoked decrease in MTS-TAMRA fluorescence (voltage clamp fluorometry) in oocytes co-expressing WT and K68A-K190C subunits; neither homomer shows a fluorescence change was 3%.
